From patent US7101851 (dated 2006)
Bridges are numbered along the chain shown (N, C = ends). Where no end group is shown, it is not given here. [ ]: non-standard residue; d: D form. The star is where a group is joined. Biotin = O=C1N[C@H]2[C@H](CS[C@H]2CCCCC(=O)*)N1; Oic = O=C(O)[C@@H]1C[C@@H]2CCCC[C@@H]2N1; 2Nal = N[C@@H](Cc1ccc2ccccc2c1)C(=O)O; Hyp = O=C(O)[C@@H]1C[C@@H](O)CN1; hSer(lactone) = O=C1OCC[C@@H]1N*; Pip = O=C(O)[C@@H]1CCCCN1; NMeA = CN[C@@H](C)C(=O)O; Sar = CNCC(=O)O

T1: alpha subunit of the human FcεRI receptor expressed on Chinese hamster ovary cells (human, UniProt P12319 26-257)
T1 construct: whole, on cells; also called CHO FcεRI+ cells
T1 sequence (looked up): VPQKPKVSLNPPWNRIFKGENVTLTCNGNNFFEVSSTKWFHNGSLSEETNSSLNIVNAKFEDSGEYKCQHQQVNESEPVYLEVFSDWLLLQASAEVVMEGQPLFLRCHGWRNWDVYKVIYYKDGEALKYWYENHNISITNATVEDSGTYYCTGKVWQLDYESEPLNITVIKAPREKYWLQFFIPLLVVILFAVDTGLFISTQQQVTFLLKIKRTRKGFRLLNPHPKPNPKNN

T2: alpha subunit of the human FcεRI receptor expressed on cells (human, UniProt P12319 26-257)
T2 construct: whole, on cells; on rat basophil RBL-48 cells in the histamine release assay; also called CHO FcεRI+ cells; cell surface expressed FcεRI
T2 sequence (looked up): T1 sequence (looked up)

B1: IGE107 (peptide)
peptide: Ac-NLPCTEGPWGWVCM
modifications: disulfide 4-13 (inferred)
notes: synthetic; As printed it lacks the Arg before the first Cys

The binders below were run against T1, alpha subunit of the human FcεRI … (assay: inhibition of 125I-IgE binding to CHO cells expressing human FcεRI alpha subunit).
Experimental: To determine the ability of peptides to inhibit IgE binding to FcεRI, a cell-based binding assay was used with radiolabeled IgE. Chinese hamster ovary cells expressing the alpha subunit of the human FcεRI receptor were cultured overnight in Falcon 96 well microtiter plates at a concentration of 5 ×10^4 cells per well. The following day the cells were rinsed three times with PBS and then once with F12/DMEM. Peptide stocks were reconstituted in 100 mM Hepes buffered water, pH 7.2, at a concentration of 5 mg/mL. Working concentrations of the peptide were diluted in assay buffer (see below). 75 uL of a desired concentration of peptide was added to the top row of a separate 96 well microtiter plate and serially diluted 1:3 in 50 uL of the assay buffer (F12/DMEM, 1% BSA, 0.05% NaN_3 and 0.025 mM Hepes pH 7.2). Starting concentrations ranged from 50–500 uM. Next, 50 uL of the diluted peptide was transferred to the 96 microtiter well plate containing a monolayer of CHO FcεRI+ cells. […] Cells were […]

IC50 | Binder
1.8 µM | Ac-NLPRCTEGPWGWVCM (disulfide 5-14 (inferred), synthetic)
60 µM | Ac-NLPRCTEG[NMeA]WGWVCM-NH2 (disulfide 5-14, synthetic) [IGE086]
1.1 µM | Ac-NLPRCTEGPWGWVCMADD-NH2 (disulfide 5-14 (inferred), synthetic) [IGE031]
19.4 µM | Ac-NLPRCTEGPNGWVCMAAD-NH2 (disulfide 5-14 (inferred), synthetic) [IGE050]
10.5 µM | Ac-NLPRCTAGPWGWVCMAAD-NH2 (disulfide 5-14 (inferred), synthetic)
10.8 µM | Ac-NLPRCTEGPKGWVCMADD-NH2 (disulfide 5-14 (inferred), synthetic) [IGE032]
23.7 µM | NLPRCTEGPNGWVCMAAD-NH2 (disulfide 5-14 (inferred), synthetic) [IGE051]
34 µM | PRCTEGPWGWVCM-NH2 (disulfide 3-12 (inferred), synthetic) [IGE069]
136 µM | Ac-NLPRCTEG[Sar]WGWVCM-NH2 (disulfide 5-14, synthetic) [IGE087]
44 µM | Ac-NLPRCTEG[NMeA]WGWVCM (disulfide 5-14 (inferred), synthetic) [IGE096]
1 µM | NLPRCTEGPWGWVCM (disulfide 5-14 (inferred), synthetic) [IGE062]
3.3 µM | LPRCTEGPWGWVCM-NH2 (disulfide 4-13 (inferred), synthetic) [IGE068]
580 µM | Ac-NLPRCTEG[Hyp]WGWVCM (disulfide 5-14 (inferred), synthetic) [IGE101]
364 µM | Ac-NLPRCTEG[Oic]WGWVCM (disulfide 5-14 (inferred), synthetic) [IGE100]
1.4 µM | NLPRCTEGPWGWVCMAAD-NH2 (disulfide 5-14 (inferred), synthetic) [IGE043]
2.5 µM | Ac-NLPRCTEGPWGWVC[hSer(lactone)] (disulfide 5-14 (inferred)) [IGE133]
259 µM | Ac-NLPRCTEGPAWGWVCM (disulfide 5-15 (inferred), synthetic) [IGE125]
12.8 µM | NLPRCTEGPWGWVC-NH2 (disulfide 5-14 (inferred), synthetic) [IGE091]
3.4 µM | Biotin-NLPRCTEGPWGWVCM (disulfide 5-14 (inferred), synthetic) [IGE078]
84 µM | Ac-NLPRCTEG[Sar]WGWVCM (disulfide 5-14 (inferred), synthetic) [IGE097]

IC50 | Binder
1.8 µM | Ac-NLPRCTEGPWGWVCM-NH2 (disulfide 5-14 (inferred), synthetic) [IGE058]
28 µM | B1
23 µM | Ac-NLPRCTEG[Pip]WGWVCM (disulfide 5-14 (inferred), synthetic) [IGE095]
20 µM | Ac-NLPRCTEGPWGWVC-NH2 (disulfide 5-14 (inferred), synthetic) [IGE092]
38.5 µM | Ac-NLPRCTEG[Pip]WGWVCM-NH2 (disulfide 5-14, synthetic) [IGE085]
1.2 µM | Ac-NLPRCTEGP[2Nal]GWVCM (disulfide 5-14 (inferred), synthetic) [IGE103]
2 µM | NLPRCTEGPWGWVCMAY (disulfide 5-14 (inferred), synthetic) [IGE076]
0.8 µM | NLPRCTEGPWGWVCM-NH2 (disulfide 5-14 (inferred), synthetic) [IGE057]
81.5 µM | NLPRCTEGPAGWVCM (disulfide 5-14 (inferred), synthetic) [IGE072]
10.6 µM | Ac-NLPRCTEGPWGLVCM (disulfide 5-14 (inferred), synthetic) [IGE109]
6.85 µM | Ac-NLPRCAEGPWGWVCM (disulfide 5-14 (inferred), synthetic) [IGE208]
43 µM | NLPRCTEGPWAWVCM (disulfide 5-14 (inferred), synthetic) [IGE074]
462 µM | NLPRCTEAPWGWVCM (disulfide 5-14 (inferred), synthetic) [IGE079]
118 µM | NLPRCTEGPWGAVCM (disulfide 5-14 (inferred), synthetic) [IGE073]
126 µM | NLPRCTEGPWGWYCM (disulfide 5-14 (inferred), synthetic) [IGE077]
14.3 µM | Ac-NLPRCTEGPWGWACM (disulfide 5-14 (inferred), synthetic) [IGE209]
84 µM | Ac-NLPRCTEGPVGWVCM (disulfide 5-14 (inferred), synthetic) [IGE106]
1.4 µM | NLPRCTEGPWGWVCI (disulfide 5-14 (inferred), synthetic) [IGE075]
7.6 µM | Ac-EIQECTEGPWGWVCM-NH2 (disulfide 5-14 (inferred), synthetic) [IGE090]

The binders below were run against T2, alpha subunit of the human FcεRI … (assay: inhibition of 125I-IgE binding to CHO cells expressing human FcεRI alpha).
Experimental: To determine the ability of peptides to inhibit IgE binding to FcεRI, a cell-based binding assay was used with radiolabeled IgE. Chinese hamster ovary cells expressing the alpha subunit of the human FcεRI receptor were cultured overnight in Falcon 96 well microtiter plates at a concentration of 5 ×10^4 cells per well. The following day the cells were rinsed three times with PBS and then once with F12/DMEM. Peptide stocks were reconstituted in 100 mM Hepes buffered water, pH 7.2, at a concentration of 5 mg/mL. Working concentrations of the peptide were diluted in assay buffer (see below). 75 uL of a desired concentration of peptide was added to the top row of a separate 96 well microtiter plate and serially diluted 1:3 in 50 uL of the assay buffer (F12/DMEM, 1% BSA, 0.05% NaN_3 and 0.025 mM Hepes pH 7.2). Starting concentrations ranged from 50–500 uM. Next, 50 uL of the diluted peptide was transferred to the 96 microtiter well plate containing a monolayer of CHO FcεRI+ cells. […] Cells were
Alanine substitutions in IGE063 (SEQ ID NO:49) were used to assess sidechain contributions. The P9A (IGE070, SEQ ID NO:52) substitution had the largest impact with a >500× reduction in binding. […] Clearly the alanine substitutions at G8, P9, W10, G11 and W12 all had major impacts on binding FcεRI.

fold reduction in binding (against IGE063) | IC50 | fold improvement in activity over the … (SEQ ID NO:1) peptide | Binder
6 fold | – | – | Ac-NLPRCTAGPWGWVCMAAD-NH2 (disulfide 5-14 (inferred), also called E7A)
– | ~1 µM | – | Ac-NLPRCTEGPWGWVCM (disulfide 5-14 (inferred))
> 500 fold | – | – | NLPRCTEGAWGWVCM (disulfide 5-14 (inferred), also called P9A) [IGE070]
– | 37 µM | > 4 fold | EIQECTEGPWGWFCVGSG (disulfide 5-14 (inferred), also called peptide of clone g8b.11) [synthetic peptide EIQECTEGPWGWFCVGSG (SEQ ID NO:8)]
